Where no end group is shown, it is not given here.
What was measured:
Conditions in all cases: both partners purified
Human His-Gαi3 WT [1] = molecular target: T1, Human His-Gαi3 WT (human, UniProt P08754 1-354); assay: fluorescence polarisation; fluorescein-labelled peptide 0.025 μM, G protein 0–8 μM; room temperature; 50 mM Tris-HCl pH 7.4, 100 mM NaCl, 0.4% NP-40, 10 mM MgCl2, 5 mM EDTA, 2 mM DTT, 30 μM GDP; one site binding hyperbola
T1 construct: Gαi3, human, UniProt P08754, full length; same plasmid as for the NMR studies; also called His-tagged Gαi3; tagged protein; source: E. coli, pET24d(+), purified as uncleaved His-tagged protein (HisPur Cobalt Resin); not shown: His tag, N-terminal, kept
T1 sequence (P08754 whole entry): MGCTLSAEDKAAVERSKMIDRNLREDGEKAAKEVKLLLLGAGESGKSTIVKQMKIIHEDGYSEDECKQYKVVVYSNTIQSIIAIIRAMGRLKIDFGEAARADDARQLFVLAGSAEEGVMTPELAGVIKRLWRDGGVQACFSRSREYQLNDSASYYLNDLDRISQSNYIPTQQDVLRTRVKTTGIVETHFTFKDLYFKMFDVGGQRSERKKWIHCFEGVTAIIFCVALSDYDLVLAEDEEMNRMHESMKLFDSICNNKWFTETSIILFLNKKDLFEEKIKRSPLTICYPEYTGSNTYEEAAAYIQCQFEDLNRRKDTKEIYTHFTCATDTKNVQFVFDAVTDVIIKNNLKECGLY

Human His-Gαi3 S252A [2] = molecular target: T2, Human His-Gαi3 S252A (human, UniProt P08754 1-354, S252 mutated to A); assay: as above
T2 construct: Gαi3, human, UniProt P08754, full length; also called S252 mutated to A; source: E. coli, pET24d(+), purified as uncleaved His-tagged protein (HisPur Cobalt Resin); not shown: His tag, N-terminal, kept
T2 sequence (P08754 whole entry S252A): as the sequence (P08754 whole entry) above, with S252A counted along it

Human His-Gαi3 N256A [3] = molecular target: T3, Human His-Gαi3 N256A (human, UniProt P08754 1-354, N256 mutated to A); assay: as above
T3 construct: Gαi3, human, UniProt P08754, full length; also called N256 mutated to A; source: E. coli, pET24d(+), purified as uncleaved His-tagged protein (HisPur Cobalt Resin); not shown: His tag, N-terminal, kept
T3 sequence (P08754 whole entry N256A): as the sequence (P08754 whole entry) above, with N256A counted along it

[4] = molecular target: T4, Human His-Gαi3 ΔC9 (lacking the last nine residues) (human, UniProt P08754 1-345); assay: as above
T4 construct: Gαi3, human, UniProt P08754, lacking the last nine residues; source: E. coli, pET24d(+), purified as uncleaved His-tagged protein (HisPur Cobalt Resin); not shown: His tag, N-terminal, kept
T4 sequence (P08754 1-345, stated change not applied): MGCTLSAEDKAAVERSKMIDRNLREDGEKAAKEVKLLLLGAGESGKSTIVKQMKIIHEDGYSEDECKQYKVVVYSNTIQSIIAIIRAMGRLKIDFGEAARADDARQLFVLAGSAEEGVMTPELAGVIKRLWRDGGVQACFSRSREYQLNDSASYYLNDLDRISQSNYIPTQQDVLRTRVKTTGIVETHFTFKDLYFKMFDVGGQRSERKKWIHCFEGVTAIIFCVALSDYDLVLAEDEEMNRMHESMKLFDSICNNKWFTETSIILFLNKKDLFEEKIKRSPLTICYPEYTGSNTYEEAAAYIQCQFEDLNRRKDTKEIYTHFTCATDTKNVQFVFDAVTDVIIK

[5] = molecular target: T5, Full-length human Gαi3, untagged (NMR sample) (human, UniProt P08754 1-354); assay: as above
T5 construct: Uniformly 2H,13C,15N labelled for NMR; also called Gαi3-GDP; 2H,13C,15N-Gαi3; source: E. coli BL21 Rosetta, pET24d(+), purified (His-Trap, tag cleavage, GST-Trap, Superdex 200); not shown: His tag, N-terminal, cleaved
T5 sequence (P08754 whole entry): as the sequence (P08754 whole entry) above

His-tagged rat Gαi3 = molecular target: T6, His-tagged rat Gαi3 (rat, UniProt P08753 1-354); assay: pull-down; as a1 but His-Gαi3 reloaded with GDP (Gαi3-[GDP]) and buffer supplemented with 100 μM GDP
T6 construct: Same protein in three nucleotide states (nucleotide-free, GDP, GDP/AlF4−); the states are told apart by the assays a1-a3; also called His-Gαi3; Gαi3-[GDP]; source: E. coli BL21(DE3), pET28b, purified (Superdex S75); nucleotide-depleted and reloaded or not with GDP or GDP/AlF4−
T6 sequence (P08753 whole entry): as the sequence (P08754 whole entry) above, with P121S, S165T, D193E, E261D, I319V counted along it

Human His-Gαi3 WT [6] = molecular target: T1, Human His-Gαi3 WT; assay: pull-down; 10 μg GST-GIV or GST-DAPLE on glutathione agarose beads (~1.25 μM); His-Gαi3 WT or mutants ~1 μM in solution; 4 h, 4 °C; 50 mM Tris-HCl pH 7.4, 100 mM NaCl, 0.4% NP-40, 10 mM MgCl2, 5 mM EDTA, 2 mM DTT, 30 μM GDP; Coomassie blue
Human His-Gαi3 S252A [7] = molecular target: T2, Human His-Gαi3 S252A; assay: as above
Human His-Gαi3 N256A [8] = molecular target: T3, Human His-Gαi3 N256A; assay: as above
[9] = molecular target: T4, Human His-Gαi3 ΔC9 (lacking the last …); assay: as above
Human His-Gαi3 W211A = molecular target: T7, Human His-Gαi3 W211A (human, UniProt P08754 1-354, W211A); assay: fluorescence polarisation; fluorescein-labelled peptide 0.025 μM, G protein 0–8 μM; room temperature; 50 mM Tris-HCl pH 7.4, 100 mM NaCl, 0.4% NP-40, 10 mM MgCl2, 5 mM EDTA, 2 mM DTT, 30 μM GDP; one site binding hyperbola
T7 construct: Gαi3, human, UniProt P08754, full length; source: E. coli, pET24d(+), purified as uncleaved His-tagged protein (HisPur Cobalt Resin); not shown: His tag, N-terminal, kept
T7 sequence (P08754 whole entry W211A): as the sequence (P08754 whole entry) above, with W211A counted along it

[10] = molecular target: T5, Full-length human Gαi3, untagged (NMR …); assay: NMR titration; 1H–15N TROSY and HNCO of 32 μM 2H,13C,15N-Gαi3 titrated with GIV peptide 1,671–1,696 (molar ratios 1:0 to 1:5); 30 °C; 10 mM HEPES pH 7.0, 10 mM MgCl2, 5 mM DTT, GDP; up to 3% DMSO
[11] = molecular target: T5, Full-length human Gαi3, untagged (NMR …); assay: NMR titration; 1H–15N TROSY and HNCO of 100 μM 2H,13C,15N-Gαi3 free and with a twofold molar excess of His-GIV-CT; 30 °C; 10 mM HEPES pH 7.0, 10 mM MgCl2, 5 mM DTT, threefold molar excess of GDP

Measured: binding result

B1: Fluorescein-labelled GIV peptide (residues 1,671–1,701) (peptide)
peptide: {5,6‑carboxyfluorescein}-KTGSPGSEVVTLQQFLEESNKLTSVQIKSSS
notes: numbers on UniProt Q3V6T2-3; also called GBA motif of GIV; GEF motif of GIV; source: synthetic peptide
binds: Human His-Gαi3 WT [1] | Human His-Gαi3 S252A [2] | Human His-Gαi3 N256A [3] | [4] | [5]

B2: GST-GIV (residues 1,671–1,755, containing its GBA motif) (domain or fragment, human, UniProt Q3V6T2-3 1671-1755, looked up)
chain: KTGSPGSEVVTLQQFLEESNKLTSVQIKSSSQENLLDEVMKSLSVSSDFLGKDKPVSCGLARSVSGKTPGDFYDRRTTKPEFLRP
notes: Girdin), human, residues 1,671–1,755
binds: His-tagged rat Gαi3 | Human His-Gαi3 WT [6] | Human His-Gαi3 S252A [7] | Human His-Gαi3 N256A [8] | [9]

B3: Fluorescein-labelled RGS12 GoLoco peptide (residues 1,185–1,221) (peptide)
peptide: {5,6‑carboxyfluorescein}-DEAEEFFELISKAQSNRADDQRGLLRKEDLVLPEFLR
notes: RGS12, GoLoco motif, residues 1,185–1,221; 'human' stands at the head of the list 'human GIV ..., DAPLE ... or RGS12'; read as applying to all three; also called GoLoco motif of RGS12; RGS12 GoLoco motif; source: synthetic peptide
binds: Human His-Gαi3 WT [1] | Human His-Gαi3 W211A

B4: GST-DAPLE (1,650–1,745) (domain or fragment, human, UniProt Q9P219 1650-1745, looked up)
chain: GTAPPYVGVRPCSASPSSEMVTLEEFLEESNRSSPTHDTPSCRDDLLSDYFRKASDPPAIGGQPGPPAKKEGAKMPTNFVAPTVKMAAPTSEGRPL
notes: DAPLE (dishevelled-associating protein with high frequency of leucines), human, residues 1,650–1,745, cloned from Kazusa's clone fh14721 (KIAA1509)
binds: Human His-Gαi3 WT [6] | Human His-Gαi3 S252A [7] | Human His-Gαi3 N256A [8] | [9]

B5: GIV peptide, amino acids 1,671–1,696 (GIVpept) (peptide)
peptide: KTGSPGSEVVTLQQFLEESNKLTSVQ
notes: GIV (Girdin), human, residues 1,671–1,696; numbers on UniProt Q3V6T2-3; Made on p-methylbenzhydrylamine resin; also called GIV fragment 1,671–1,696; source: synthetic peptide
binds: [10]

B6: His-tagged human GIV residues 1,660–1,870 (GIV-CT) (domain or fragment, UniProt Q3V6T2-3 1660-1870, looked up)
chain: SETLESRHHKIKTGSPGSEVVTLQQFLEESNKLTSVQIKSSSQENLLDEVMKSLSVSSDFLGKDKPVSCGLARSVSGKTPGDFYDRRTTKPEFLRPGPRKTEDTYFISSAGKPTPGTQGKIKLVKESSLSRQSKDSNPYATLPRASSVISTAEGTTRRTSIHDFLTKDSRLPISVDSPPAAADSNTTAASNVDKVQESRNSKSRSREQQSS
notes: MALDI mass consistent with the tagged fragment lacking the initial methionine; source: E. coli BL21(DE3), pET28b, purified (Co2+ and Ni2+ columns, Superdex 200); not shown: His tag, N-terminal, kept
binds: [11]

— publication PMC5454376 (Nature Communications, 2017)
